Like-named read-outs stand apart in the source and are kept apart here.
Columns and labels:
Assay in all cases: cell-based or functional assay
[1] = target: MMP-9
[2] = target: MMP-2
[3] = target: MMP-13
[4] = target: T1, MMP-7
T1 sequence (P09237 95-267, species assumed, looked up): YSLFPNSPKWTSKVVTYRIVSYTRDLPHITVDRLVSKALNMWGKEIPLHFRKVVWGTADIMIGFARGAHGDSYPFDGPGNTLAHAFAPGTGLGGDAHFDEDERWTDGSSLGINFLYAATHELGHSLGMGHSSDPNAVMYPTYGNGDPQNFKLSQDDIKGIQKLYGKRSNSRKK

[5] = target: MMP-3
[6] = target: MMP-9; remark: listed apart in the source
[7] = target: MMP-2; remark: listed apart in the source
[8] = target: MMP-13; remark: listed apart in the source
[9] = target: T1, MMP-7; remark: listed apart in the source
[10] = target: MMP-3; remark: listed apart in the source
[11] = target: MMP-9; remark: listed apart in the source
[12] = target: MMP-2; remark: listed apart in the source
[13] = target: MMP-13; remark: listed apart in the source
[14] = target: T1, MMP-7; remark: listed apart in the source
[15] = target: MMP-3; remark: listed apart in the source
[16] = target: MMP-9; remark: listed apart in the source
[17] = target: MMP-2; remark: listed apart in the source
[18] = target: MMP-13; remark: listed apart in the source
[19] = target: T1, MMP-7; remark: listed apart in the source
[20] = target: MMP-3; remark: listed apart in the source

B1: PN2 (P2: Cy5.5-Gly-Val-Pro-Leu-Ser-Leu-Thr-Met-Gly-Lys(BHQ3)-Gly-Gly-COOH conjugated to glycol chitosan-bile acid nanoparticle) (peptide)
peptide: {Cy5.5}-GVPLSLTMGK(BHQ3)GG-{glycol chitosan‑cholanic acid nanoparticle}
modifications: not fully specified; printed as Cy5.5-Gly-Val-Pro-Leu-Ser-Leu-Thr-Met-Gly-Lys(BHQ3)-Gly-Gly-COOH
fluorescent intensity (FI) recovered after 60 minutes, fold [1]: 1.3 times
fluorescent intensity (FI) recovered after 60 minutes, fold [2]: 1.8 times
fluorescent intensity (FI) recovered after 60 minutes, fold [3]: 4.8 times
fluorescent intensity (FI) recovered after 60 minutes, fold [4]: 3.9 times
fluorescent intensity (FI) recovered after 60 minutes, fold [5]: 3.6 times
fluorescent intensity (FI) at 0 min [6]: 182
fluorescent intensity (FI) at 10 min [6]: 186
fluorescent intensity (FI) at 20 min [6]: 186
fluorescent intensity (FI) at 30 min [6]: 187
fluorescent intensity (FI) at 40 min [6]: 239
fluorescent intensity (FI) at 50 min [6]: 233
fluorescent intensity (FI) at 60 min [6]: 248
fluorescent intensity (FI) at 0 min [7]: 271
fluorescent intensity (FI) at 10 min [7]: 245
fluorescent intensity (FI) at 20 min [7]: 350
fluorescent intensity (FI) at 30 min [7]: 280
fluorescent intensity (FI) at 40 min [7]: 335
fluorescent intensity (FI) at 50 min [7]: 426
fluorescent intensity (FI) at 60 min [7]: 494
fluorescent intensity (FI) at 0 min [8]: 287
fluorescent intensity (FI) at 10 min [8]: 724
fluorescent intensity (FI) at 20 min [8]: 1060
fluorescent intensity (FI) at 30 min [8]: 1230
fluorescent intensity (FI) at 40 min [8]: 1350
fluorescent intensity (FI) at 50 min [8]: 1360
fluorescent intensity (FI) at 60 min [8]: 1370
fluorescent intensity (FI) at 0 min [9]: 328
fluorescent intensity (FI) at 10 min [9]: 653
fluorescent intensity (FI) at 20 min [9]: 993
fluorescent intensity (FI) at 30 min [9]: 1160
fluorescent intensity (FI) at 40 min [9]: 1250
fluorescent intensity (FI) at 50 min [9]: 1310
fluorescent intensity (FI) at 60 min [9]: 1280
fluorescent intensity (FI) at 0 min [10]: 336
fluorescent intensity (FI) at 10 min [10]: 226
fluorescent intensity (FI) at 20 min [10]: 408
fluorescent intensity (FI) at 30 min [10]: 843
fluorescent intensity (FI) at 40 min [10]: 946
fluorescent intensity (FI) at 50 min [10]: 1070
fluorescent intensity (FI) at 60 min [10]: 1230

B2: PN3 (P3: Cy5.5-Gly-Pro-Leu-Gly-Met-Arg-Gly-Leu-Gly-Lys(BHQ3)-Gly-Gly-COOH conjugated to glycol chitosan-bile acid nanoparticle) (peptide)
peptide: {Cy5.5}-GPLGMRGLGK(BHQ3)GG-{glycol chitosan‑cholanic acid nanoparticle}
modifications: not fully specified; printed as Cy5.5-Gly-Pro-Leu-Gly-Met-Arg-Gly-Leu-Gly-Lys(BHQ3)-Gly-Gly-COOH
fluorescent intensity (FI) at 0 min [11]: 101
fluorescent intensity (FI) at 10 min [11]: 106
fluorescent intensity (FI) at 20 min [11]: 109
fluorescent intensity (FI) at 30 min [11]: 114
fluorescent intensity (FI) at 40 min [11]: 128
fluorescent intensity (FI) at 50 min [11]: 130
fluorescent intensity (FI) at 60 min [11]: 133
fluorescent intensity (FI) at 0 min [12]: 77.4
fluorescent intensity (FI) at 10 min [12]: 91
fluorescent intensity (FI) at 20 min [12]: 125
fluorescent intensity (FI) at 30 min [12]: 151
fluorescent intensity (FI) at 40 min [12]: 189
fluorescent intensity (FI) at 50 min [12]: 238
fluorescent intensity (FI) at 60 min [12]: 287
fluorescent intensity (FI) at 0 min [13]: 101
fluorescent intensity (FI) at 10 min [13]: 131
fluorescent intensity (FI) at 20 min [13]: 166
fluorescent intensity (FI) at 30 min [13]: 234
fluorescent intensity (FI) at 40 min [13]: 281
fluorescent intensity (FI) at 50 min [13]: 355
fluorescent intensity (FI) at 60 min [13]: 456
fluorescent intensity (FI) at 0 min [14]: 104
fluorescent intensity (FI) at 10 min [14]: 90.1
fluorescent intensity (FI) at 20 min [14]: 87.6
fluorescent intensity (FI) at 30 min [14]: 87
fluorescent intensity (FI) at 40 min [14]: 91.5
fluorescent intensity (FI) at 50 min [14]: 94.9
fluorescent intensity (FI) at 60 min [14]: 86.3
fluorescent intensity (FI) at 0 min [15]: 102
fluorescent intensity (FI) at 10 min [15]: 128
fluorescent intensity (FI) at 20 min [15]: 143
fluorescent intensity (FI) at 30 min [15]: 174
fluorescent intensity (FI) at 40 min [15]: 200
fluorescent intensity (FI) at 50 min [15]: 217
fluorescent intensity (FI) at 60 min [15]: 249
fluorescent intensity (FI) recovered after 60 minutes, fold [1]: 1.3 times
fluorescent intensity (FI) recovered after 60 minutes, fold [2]: 3.7 times
fluorescent intensity (FI) recovered after 60 minutes, fold [3]: 4.3 times
fluorescent intensity (FI) recovered after 60 minutes, fold [4]: 0.8 times
fluorescent intensity (FI) recovered after 60 minutes, fold [5]: 2.4 times

B3: PN1 (P1: Cy5.5-Gly-Pro-Leu-Gly-Val-Arg-Gly-Lys(BHQ3)-Gly-Gly-COOH conjugated to glycol chitosan-bile acid nanoparticle) (peptide)
peptide: {Cy5.5}-GPLGVRGK(BHQ3)GG-{glycol chitosan‑cholanic acid nanoparticle}
modifications: not fully specified; printed as Cy5.5-Gly-Pro-Leu-Gly-Val-Arg-Gly-Lys(BHQ3)-Gly-Gly-COOH
fluorescent intensity (FI) recovered after 60 minutes, fold [1]: 9.2 times
fluorescent intensity (FI) recovered after 60 minutes, fold [2]: 9.7 times
fluorescent intensity (FI) recovered after 60 minutes, fold [3]: 12.3 times
fluorescent intensity (FI) recovered after 60 minutes, fold [4]: 1 times
fluorescent intensity (FI) recovered after 60 minutes, fold [5]: 2 times
fluorescent intensity (FI) at 0 min [16]: 350
fluorescent intensity (FI) at 10 min [16]: 680
fluorescent intensity (FI) at 20 min [16]: 1350
fluorescent intensity (FI) at 30 min [16]: 2010
fluorescent intensity (FI) at 40 min [16]: 2250
fluorescent intensity (FI) at 50 min [16]: 2850
fluorescent intensity (FI) at 60 min [16]: 3220
fluorescent intensity (FI) at 0 min [17]: 379
fluorescent intensity (FI) at 10 min [17]: 952
fluorescent intensity (FI) at 20 min [17]: 1720
fluorescent intensity (FI) at 30 min [17]: 2390
fluorescent intensity (FI) at 40 min [17]: 2920
fluorescent intensity (FI) at 50 min [17]: 3210
fluorescent intensity (FI) at 60 min [17]: 3660
fluorescent intensity (FI) at 0 min [18]: 665
fluorescent intensity (FI) at 10 min [18]: 1930
fluorescent intensity (FI) at 20 min [18]: 3930
fluorescent intensity (FI) at 30 min [18]: 5290
fluorescent intensity (FI) at 40 min [18]: 6510
fluorescent intensity (FI) at 50 min [18]: 7610
fluorescent intensity (FI) at 60 min [18]: 8180
fluorescent intensity (FI) at 0 min [19]: 278
fluorescent intensity (FI) at 10 min [19]: 288
fluorescent intensity (FI) at 20 min [19]: 287
fluorescent intensity (FI) at 30 min [19]: 290
fluorescent intensity (FI) at 40 min [19]: 294
fluorescent intensity (FI) at 50 min [19]: 300
fluorescent intensity (FI) at 60 min [19]: 302
fluorescent intensity (FI) at 0 min [20]: 307
fluorescent intensity (FI) at 10 min [20]: 285
fluorescent intensity (FI) at 20 min [20]: 363
fluorescent intensity (FI) at 30 min [20]: 421
fluorescent intensity (FI) at 40 min [20]: 506
fluorescent intensity (FI) at 50 min [20]: 537
fluorescent intensity (FI) at 60 min [20]: 630

— patent US8841085 (KOREA INSTITUTE OF SCIENCE AND TECHNOLOGY, dated 2014)
